Tests used:
Test in all cases: phage adsorption assay; 10^6 pfu of χ phage added to 10 ml LB cultures of motile cells at OD600 2.0, shaken ten minutes at 37°C; cells pelleted at 15,000 x g and phage left in the supernatant titered by plaque assay; adsorption = (1 - pfu supernatant with cells/pfu control without cells) * 100%
[1] = target: ser. Enteritidis FliC with both D2 domains and D3 replaced by their ser. Typhimurium equivalents (strain FliC11) (Salmonella enterica serotype Enteritidis P125109 | Salmonella enterica serotype Typhimurium 14028s) (UniProt Q06972)
[2] = target: ser. Typhimurium FliC with a deletion of D3 (strain FliC3) (Salmonella enterica serotype Typhimurium 14028s) (UniProt P06179)
[3] = target: wild type ser. Typhimurium FliC (strain FliC1) (Salmonella enterica serotype Typhimurium 14028s) (UniProt P06179)
[4] = target: ser. Typhimurium FliC with D3 replaced by D3 from ser. Enteritidis FliC (strain FliC6) (Salmonella enterica serotype Typhimurium 14028s | Salmonella enterica serotype Enteritidis P125109) (UniProt P06179)

## Bacteriophage χ (Chi)
[1]
  percentage of phage particles adsorbed after ten minutes: 48%
[2]
  percentage of phage particles adsorbed after ten minutes: 95%
[3]
  percentage of phage particles adsorbed after ten minutes: 99%
[4]
  percentage of phage particles adsorbed after ten minutes: 67%

Reference: article PMC10399903
